Measurements taken from paper PMC12234435, “Monoclonal antibody neutralizes Staphylococcus aureus serine protease-like protein B (SplB)-induced pathology” (Infection and Immunity, 2025).

Key:
[1] = molecular target: T1, recombinant tag-free Staphylococcus aureus serine protease-like protein B (SplB) (Staphylococcus aureus (strain NCTC 8325 …, UniProt Q2FXC3)); test: cell-based or functional assay
[2] = molecular target: T1, recombinant tag-free Staphylococcus …; test: MST; RED-NHS-labelled tag-free SplB (40 nM) constant, α-SplB1 serially diluted from 3.42 µM to 0.209 nM; MST buffer with 0.05% Tween-20; RT; Monolith NT.115, 100% excitation power, 40% MST power; details: both partners purified
[3] = molecular target: T2, native SplB in the extracellular proteins of S. aureus D29 (Staphylococcus aureus D29 (USA300 …, UniProt Q2FFT0, strain)); test: Western blot; 5 µg extracellular proteins of S. aureus NCTC 8325-4 and D29 denatured, SDS-PAGE, blotted on PVDF; α-SplB1 300 ng/mL overnight at 4°C as primary antibody; details: one partner purified
T2 construct: serine protease-like protein B (SplB), secreted by S. aureus D29, a community-acquired USA300 derivative (CC8); no identifier printed for this strain's SplB; Denatured, separated by SDS-PAGE and blotted; also called SplB in the ECP preparation

[4] = molecular target: T3, recombinant tag-free Staphylococcus aureus serine protease-like protein F (SplF) (Staphylococcus aureus (strain NCTC 8325 …, UniProt Q2FXC8)); test: ELISA; indirect ELISA for cross-reactivity with recombinant tag-free SplA, SplD, SplE and SplF; details: both partners purified
T3 construct: serine protease-like protein F (SplF) of Staphylococcus aureus, tag-free

[5] = molecular target: T4, recombinant tag-free Staphylococcus aureus serine protease-like protein A (SplA) (Staphylococcus aureus NCTC 8325 (strain …, UniProt Q2FXC2)); test: as above; details: both partners purified
T4 construct: serine protease-like protein A (SplA) of Staphylococcus aureus, tag-free

[6] = molecular target: T5, recombinant tag-free Staphylococcus aureus serine protease-like protein D (SplD) (Staphylococcus aureus (strain NCTC 8325 …, UniProt Q2FXC5)); test: as above; details: both partners purified
T5 construct: serine protease-like protein D (SplD) of Staphylococcus aureus, tag-free

[7] = molecular target: T6, recombinant tag-free Staphylococcus aureus serine protease-like protein E (SplE) (Staphylococcus aureus (strain NCTC 8325 …, UniProt Q2FXC7)); test: as above; details: both partners purified
T6 construct: serine protease-like protein E (SplE) of Staphylococcus aureus, tag-free

B1: murine anti-SplB monoclonal antibody α-SplB1 (antibody, V domains shown)
VH: EVQLQESGPGILQSSQTLSLTCSFSGFSLNSVGMGVTWIRQPSGKGLEWLAHIYWDDDKLYNSSLKSRLTISKDTSRNQVFLNITSVVSADTATYYCARRVYGISYDYWYFDVWGTGTAVTVSS
VL: DILMTQSPATLSVTPGDRVSLSCRASQSISDYLHWYQQKSHESPRLLIKYASQSISGIPSRFSGSGSGSDFTLSINSVEPEDVGVYYCQNGHIFPPTFGAGTKLELK
notes: variable region of the heavy chain; mouse IgG1 heavy chain constant region (isotyping: IgG1 subclass); variable region of the light chain; mouse kappa light chain constant region (isotyping: κ light chains); IgG1, kappa; Raised against SplB-Strep; also called α-SplB1 mAb; anti-SplB mAb; source: hybridoma supernatant (C57BL/6N splenocytes fused with P3X63Ag8.653), purified (Protein-G-Sepharose)
For B1, the “neutralisation of the cleavage of the synthetic substrate Ac-VEID-MCA by 2.5 µM tag-free SplB, pre-incubated with α-SplB1 at molar ratios 1:1 to 1:8 (SplB:α-SplB1), 37°C, 1 h” value [1] was 66 % neutralised (at 1:1 molar ratio; complete at 1:2), the Kd [2] was 37.9 nM and the binding result [3] was “binds”. B1: no binding [4]; no binding [5]; no binding [6]. B1: no binding [7].
